{
  "source": "patent US8956612B2",
  "about": "“Peptide associated with rheumatic fever (PARF) and its use as a diagnostic marker” (Helmholtz-Zentrum für Infektionsforschung GmbH, priority 2006, dated 2015)",
  "key": {"collagen IV [1]": {"target": "T1, collagen IV (Homo sapiens, UniProt P02462+P08572)", "T1 construct": "purchased Sigma; host or cells: human placenta (tissue-derived)", "T1 sequence (P02462 173-1669)": "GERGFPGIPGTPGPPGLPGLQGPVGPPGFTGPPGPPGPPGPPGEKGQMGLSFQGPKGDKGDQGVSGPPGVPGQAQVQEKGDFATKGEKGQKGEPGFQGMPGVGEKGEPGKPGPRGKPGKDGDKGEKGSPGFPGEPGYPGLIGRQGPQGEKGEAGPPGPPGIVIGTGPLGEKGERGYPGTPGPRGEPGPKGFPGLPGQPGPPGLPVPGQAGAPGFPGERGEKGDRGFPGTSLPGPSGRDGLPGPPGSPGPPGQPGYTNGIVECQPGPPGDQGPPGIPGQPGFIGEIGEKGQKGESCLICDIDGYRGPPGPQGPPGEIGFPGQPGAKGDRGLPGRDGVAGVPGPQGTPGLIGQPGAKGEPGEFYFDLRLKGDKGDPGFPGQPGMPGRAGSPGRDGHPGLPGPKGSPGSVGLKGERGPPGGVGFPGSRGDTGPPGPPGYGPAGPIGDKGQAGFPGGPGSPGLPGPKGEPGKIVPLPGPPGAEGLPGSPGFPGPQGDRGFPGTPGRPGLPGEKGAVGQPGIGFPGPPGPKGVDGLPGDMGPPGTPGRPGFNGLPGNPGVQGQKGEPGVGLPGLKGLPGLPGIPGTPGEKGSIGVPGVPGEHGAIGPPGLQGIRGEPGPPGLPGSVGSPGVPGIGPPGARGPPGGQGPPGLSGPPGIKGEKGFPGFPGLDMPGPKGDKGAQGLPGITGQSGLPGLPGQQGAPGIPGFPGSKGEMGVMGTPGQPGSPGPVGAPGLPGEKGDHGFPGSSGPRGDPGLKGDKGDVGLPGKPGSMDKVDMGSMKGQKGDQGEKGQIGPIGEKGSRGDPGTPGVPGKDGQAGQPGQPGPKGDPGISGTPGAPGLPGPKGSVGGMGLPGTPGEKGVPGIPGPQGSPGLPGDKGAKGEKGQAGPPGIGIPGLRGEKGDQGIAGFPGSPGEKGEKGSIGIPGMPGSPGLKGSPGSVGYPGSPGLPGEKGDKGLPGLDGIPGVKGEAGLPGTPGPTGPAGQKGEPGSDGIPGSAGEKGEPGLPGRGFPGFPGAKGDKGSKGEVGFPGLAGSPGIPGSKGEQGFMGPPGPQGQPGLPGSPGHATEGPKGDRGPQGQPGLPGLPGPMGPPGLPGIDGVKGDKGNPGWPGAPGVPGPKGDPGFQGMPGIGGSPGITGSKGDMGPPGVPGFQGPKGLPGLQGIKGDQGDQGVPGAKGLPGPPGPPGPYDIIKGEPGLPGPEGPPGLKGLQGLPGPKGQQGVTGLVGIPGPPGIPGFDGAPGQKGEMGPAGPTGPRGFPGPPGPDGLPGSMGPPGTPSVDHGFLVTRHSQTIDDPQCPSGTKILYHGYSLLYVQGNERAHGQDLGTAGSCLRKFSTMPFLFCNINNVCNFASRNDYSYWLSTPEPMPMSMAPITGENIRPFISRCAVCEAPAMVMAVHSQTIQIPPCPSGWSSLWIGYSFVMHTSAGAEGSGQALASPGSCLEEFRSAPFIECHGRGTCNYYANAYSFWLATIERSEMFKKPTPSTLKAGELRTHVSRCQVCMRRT", "T1 sequence (P08572 184-1712)": "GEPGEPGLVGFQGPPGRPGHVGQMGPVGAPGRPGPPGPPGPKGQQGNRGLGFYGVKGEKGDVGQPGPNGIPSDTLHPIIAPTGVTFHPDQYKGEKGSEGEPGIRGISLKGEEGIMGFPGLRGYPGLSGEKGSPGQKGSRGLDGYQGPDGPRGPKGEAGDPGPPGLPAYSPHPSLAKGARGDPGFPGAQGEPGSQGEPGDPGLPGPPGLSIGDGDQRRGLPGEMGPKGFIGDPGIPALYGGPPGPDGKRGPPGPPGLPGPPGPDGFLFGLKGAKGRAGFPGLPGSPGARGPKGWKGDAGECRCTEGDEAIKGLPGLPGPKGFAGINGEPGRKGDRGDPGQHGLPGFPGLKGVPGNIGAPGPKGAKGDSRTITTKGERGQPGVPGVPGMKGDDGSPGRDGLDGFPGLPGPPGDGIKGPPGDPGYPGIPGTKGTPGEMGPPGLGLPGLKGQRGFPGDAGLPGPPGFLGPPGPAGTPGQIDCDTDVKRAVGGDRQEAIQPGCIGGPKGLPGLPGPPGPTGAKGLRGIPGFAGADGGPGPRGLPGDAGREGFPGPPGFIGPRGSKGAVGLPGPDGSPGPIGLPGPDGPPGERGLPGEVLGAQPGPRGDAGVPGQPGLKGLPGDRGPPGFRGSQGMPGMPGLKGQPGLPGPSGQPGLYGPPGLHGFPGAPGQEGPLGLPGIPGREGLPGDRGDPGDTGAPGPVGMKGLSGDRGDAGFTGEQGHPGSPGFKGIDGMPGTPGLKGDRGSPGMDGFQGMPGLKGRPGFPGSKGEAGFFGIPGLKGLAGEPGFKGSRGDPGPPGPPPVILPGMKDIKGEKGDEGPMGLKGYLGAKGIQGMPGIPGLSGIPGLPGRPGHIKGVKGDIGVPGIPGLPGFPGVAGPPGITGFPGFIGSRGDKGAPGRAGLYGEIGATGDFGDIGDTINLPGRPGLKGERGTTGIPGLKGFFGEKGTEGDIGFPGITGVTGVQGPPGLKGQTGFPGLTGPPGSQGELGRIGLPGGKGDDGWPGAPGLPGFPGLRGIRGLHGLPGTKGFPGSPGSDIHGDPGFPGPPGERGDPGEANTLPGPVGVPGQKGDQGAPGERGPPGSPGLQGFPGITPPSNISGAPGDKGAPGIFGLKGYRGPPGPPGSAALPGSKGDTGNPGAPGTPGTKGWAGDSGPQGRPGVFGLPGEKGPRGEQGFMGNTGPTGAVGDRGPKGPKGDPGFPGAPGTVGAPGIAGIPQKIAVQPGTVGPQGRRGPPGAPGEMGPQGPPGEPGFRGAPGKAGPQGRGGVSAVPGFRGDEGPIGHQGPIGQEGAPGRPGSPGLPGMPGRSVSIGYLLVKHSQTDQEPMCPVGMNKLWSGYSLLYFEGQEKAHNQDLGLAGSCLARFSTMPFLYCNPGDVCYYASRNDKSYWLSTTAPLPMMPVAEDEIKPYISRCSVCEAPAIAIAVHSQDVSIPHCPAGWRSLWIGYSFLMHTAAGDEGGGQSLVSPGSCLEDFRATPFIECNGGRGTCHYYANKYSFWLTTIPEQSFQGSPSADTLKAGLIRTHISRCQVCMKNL", "test": "Surface plasmon resonance, FOG fragments on immobilized collagen IV", "assay_type": "binding", "details": "SPR; 12.5, 25, 50, 100 μg/ml", "description": "Site directed mutagenesis was performed on the plasmid pGEX-6P-1-FOGfl that coded for the GST-FOGfl fusion protein. E. coli clones containing the plasmids with the desired substitutions were generated using the GeneTailor™ Site Directed Mutagenesis System (Invitrogen) following the manufacturers recommendations. The tagged proteins from E. coli lysates were bound to glutathione sepharose 4B (GE Healthcare) and eluted with 10 mM reduced L-glutathione (Sigma) in 50 mM TrisHCl (pH=8.0) after washing the matrix with PBS. Alternatively, for SPR measurements of FOG1-B and FOG1-A the GST-tag was removed by digesting the proteins with PreScission™ protease (GE Healthcare) while bound to the affinity matrix, which eluted the untagged FOG proteins.\nProtein interactions were studied in a BIAcore 2000 system (BIAcore AB) using 10 mM HEPES, 100 mM NaCl, pH=7.4 as running buffer. A CM5 sensor chip was activated by a 4 min injection of 0.05M N-hydroxysuccinimid, 0.2 M N-ethyl-N-(3-dimethylaminopropyl)-carbodiimide hydrochloride in water. Collagen IV from human placenta (Sigma, 1 mg/ml in 0.1M NaAc) was diluted 1:25 in 10 mM NaAc (pH=5.2). Immediate injection of 3 μl at a flow rate of 5 μl/min lead to immobilization of 400 to 550 response units (RU) of collagen IV. Residual reactive groups were inactivated by 6 min injection of 1 M ethanolamine, 0.1 M NaHCO3, 0.5 M NaCl, 5 mM EDTA, pH=8.0. […]"}, "collagen IV [2]": {"tested_on": "collagen IV", "test": "Immunization of mice, anti-collagen IV antibody titer by ELISA", "assay_type": "in vivo, BALB/c mice", "details": "sera of immunized mice compared to the buffer control", "description": "Pathogen free 8 week old female BALB/c mice were immunized intra-peritoneally with an emulsion of 25-30 μg recombinant purified protein in 50 μl PBS and 50 μl Freund's incomplete adjuvant per dose at day 1, 7 and 14. Control mice were injected with 50 μl PBS and 50 μl Freund's incomplete adjuvant per dose. At day 21, serum samples of each group were collected and tested in ELISA. To absorb FOG reactive antibodies, 10 μl serum pool was diluted 1:50 in PBS, and incubated for 1 h with 1 mg GST-FOGfl protein immobilized on glutathione sepharose 4B. Antibodies that bound to the affinity matrix were removed by centrifugation. The supernatant was subjected to ELISA analysis.\nTo determine anti-collagen CIV antibody titers, 96 well plates (Greiner, Frickenhausen, Germany) were coated over night at 4° C. with anti-human collagen IV rabbit polyclonal antibody (Progen, Heidelberg, Germany) diluted 1:100 in 0.1 M NaHCO3 (pH=9.6), blocked with 2% bovine serum albumin (BSA) in PBST and incubated with collagen IV (2 μg/ml in PBS) for 1 h at 37° C. […] After washing, bound antibodies were detected using suitable horseradish peroxidase coupled secondary anti-serum (goat anti-mouse IgG,M, Jackson Laboratories; rabbit anti-human IgG, A, M, Sigma-Aldrich) and 2,2-azino-di-[3-ethylbenzthiazoline sulfonate]diammonium salt (ABTS tablets, Boehringer, Mannheim, Germany) as substrate. […]"}},
  "data": [
    {"molecule": "FOG1-A: recombinant protein, the first 134 amino acids of the mature FOG protein (protein, listed as Streptococcus sp.) DRWKAQTEEARTDKLIAGFANLDADVTNLGKMMDELQKLKDFSKQNNSIGEYARYLQKLNDQFQEYYEQVVGDDSRRVLAKELAKNTELNEKLSELSTTSQALAKELQEQKENYDLVK", "values": [
      {"measurement": "interaction with immobilized collagen IV", "setting": "collagen IV [1]", "value": "concentration dependent interaction"},
      {"measurement": "titers of anti-collagen antibodies in ELISA", "setting": "collagen IV [2]", "value": "Substantially higher titers"}
    ]}
  ]
}
